Experimental data reported in the supplement of paper PMC10567573.

B1: ZNF8 (parent)
chain: RTHTGEKPYTCSVCGKSFSRTTCL
B2: INTS4 (parent)
chain: IRLVDDAFGKICHMVSDGSWVVRV

Variants of: B1
Assay: protein stability index of a GFP-peptide fusion (GPS, HEK-293T) (PSI 1-6); higher = more stable
Conditions: c terminus: a fixed tail appended
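Note: lentivirally expressed fusions sorted by FACS into six bins by GFP to DsRed ratio, PSI derived from sequencing read proportions per bin multiplied by bin number.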

Protein stability index of substitutions, site by site:
R20: P 2.75; W 2.47; I 1.75; D 3.46; T 2.77; S 2.17; G 3.17; Q 2.87; K 2.76; V 2.02; E 3.14; L 2.01
H3: R 2.15; I 2.21; T 2.44; V 2.82; L 1.88; D 2.82; N 2.72; Y 2.27; F 2.08
C11: I 2.01; S 2.52; E 2.48; Y 1.86; T 2.39; G 2.33; H 1.99; A 2.88
P8: C 2.81; G 2.9; Q 3.05; M 2.62; H 2.63; F 2.25; Y 2.95; K 2.04; W 2.9; A 3.27; N 2.93
Y9: Q 2.31; T 2.59; L 2.39; I 2.59; H 2.11; G 2.5; E 2.95; P 2.4; V 2.65; M 2.23; N 2.51
K16: F 1.77; G 2.41; Q 2.6; N 2.58; E 2.61; C 2.16; P 1.81; D 2.08; S 1.75; R 2.45; W 1.84; H 1.99; L 2.09
S19: A 1.36; F 2.64; M 2.5; Y 2.33; G 2.35; D 2.79; I 2.07; E 2.67; H 2.59; R 3.8; K 2.45; N 2.67; L 2.51; P 2.26
G5: P 2.4; C 2.84; D 2.62; R 2.5; F 2.64; Q 2.36; S 3.15; Y 2.15; I 3.05; T 2.4; E 3.25; V 2.87
T10: C 2.83; S 2.36; R 2.51; Y 1.98; P 2.27; W 1.75; M 2.19; H 2.75; L 2.05; A 2.06; F 1.89; K 2.15; V 2.72
V13: S 2.56; G 2; Y 2.43; R 1.99; P 1.97; D 2.46; H 2.61; I 2.09; L 2.23; A 2.26; M 2.14
C14: I 2.34; T 2.46; K 3.06; E 2.46; P 2.82; D 2.77; Q 2.17; V 3.13; Y 2.06; M 2.88; A 2.17; N 2.87
F18: N 2.53; Y 2.23; I 1.54; S 2.73; D 2.92; W 2.43; H 4.78; E 3.37; G 2.84; L 3.4; R 2.56; K 2.5; C 3.45
L24: P 3.17; S 2.06; V 3.06; F 2.06; D 3.21; H 3.46; M 2.87; Y 2.48; I 2.8; E 3.28; R 2.73
T22: L 1.9; V 2.16; F 2.3; G 2.1; Y 1.98; E 4.28; C 4.01; H 2.24; S 1.82; A 2.56; D 2.27; Q 2.5; K 2.97; R 1.8; N 2.94; W 1.86
R1: A 2.43; Y 2.51; P 2.64; C 4.33; L 1.94; I 2.59; S 2.34; D 2.85; F 2.22
S12: D 2.59; E 2.72; F 2.05; M 2.34; N 2.24; Q 2.33; I 2.11; K 2.13; A 2.96; P 2.7; Y 2.27; V 2.21
E6: M 2.19; P 2.11; G 2.26; N 1.96; L 2.1; I 2.75; F 2.11; K 2.53; D 2.9; H 2.48; C 2.28; V 2.04
K7: H 2.93; A 2.35; S 2.47; V 2.44; F 2.5; N 2.42; Y 2.36; M 2.29; I 2.15; E 2.36; W 2.31; L 2.72
T21: Y 2.32; S 2.16; Q 2.49; P 2.58; I 2.15; G 3.27; F 1.71; H 3.29; E 2.67; W 1.72; L 2.83; N 1.99; K 2.4; M 2.39
G15: F 2.28; C 1.83; I 1.46; P 2.57; V 1.73; K 2.25; H 1.81; W 1.43; M 1.6; Q 1.75; Y 1.32; N 1.92
S17: R 2.77; W 1.82; I 2.17; T 2.63; E 2.4; P 3.07; K 2.87; L 2.34
T2: D 2.93; G 2.52; K 2.76; H 2.52; V 2.55; E 2.85; R 2.19; Y 2.07; I 1.86; F 2.69; N 2.49; W 2.2; P 2.2; L 2.1
C23: M 2.19; L 1.93; P 2.63; E 3; R 1.84; D 2.46; S 2.03; Y 2.57; F 2.11; K 2.28; V 1.59; A 2.21; T 2.1; H 2.26
T4: M 2.16; Q 2.31; W 1.83; H 2.99; R 2.66; Y 2.27; G 2.44; F 1.69; D 2.49; A 2.1; N 3.12; I 2.13

Variants of: B2
Assay: as above
Conditions: c terminus: a fixed tail appended

Protein stability index of substitutions, site by site:
D6: W 2.88; M 3.24; G 2.84
A7: D 2.86
V4: S 2.82; A 3.46; T 1.88; L 4.43
C12: H 2.35; A 3.65
F8: R 2.46; G 1.6; W 3.06
R2: A 3.67; S 2.96
V21: F 2.62; Y 4.71; K 3.29
V24: N 1.42; D 1.47; K 1.58
W20: I 2.89
V15: P 3.17; T 3.2
S19: K 2.25; C 1.73
I11: M 2.41; Y 3.31
D5: G 3.16
K10: R 4.19
I1: T 3.21; H 3.54; C 2.39
S16: I 2.59
H13: Y 2.38; M 3.09
L3: V 3.33; W 1.97; C 1.72
V22: H 2.78; W 2.35
M14: T 3.71; P 2.76; Y 1.64; R 1.53; A 2.75
G18: T 1.95; S 1.88
D17: P 2.05
